Positions count from the first letter of the chain named.
Tests used:
[1] = target: T1, human CD20 (human, UniProt P11836 1-297); assay: fixed Ramos cell ELISA, Fab 1 h, anti-His6 peroxidase, OD 450 (overall binding)
T1 sequence (looked up): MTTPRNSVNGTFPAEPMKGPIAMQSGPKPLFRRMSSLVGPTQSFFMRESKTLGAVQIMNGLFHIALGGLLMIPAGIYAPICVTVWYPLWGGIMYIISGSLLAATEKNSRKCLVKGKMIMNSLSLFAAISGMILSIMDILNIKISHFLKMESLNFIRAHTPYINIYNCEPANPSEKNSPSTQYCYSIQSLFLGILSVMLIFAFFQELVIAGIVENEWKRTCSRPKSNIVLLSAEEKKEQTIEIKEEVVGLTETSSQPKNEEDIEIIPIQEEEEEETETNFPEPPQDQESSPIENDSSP
Method: (§1) Ramos cells (ATCC) were grown in RPMI 1640 containing 10% heat inactivated Fetal Bovine Serum. Fifty microliters of Ramos cells (2-4×10⁶/ml), were pipetted into each well of a 96 well Poly-D-Lysine coated plate (BIOCAT Becton Dickinson Labware) and incubated at 37620 C., 5% CO₂ for 18 hours. Media was gently aspirated and […] of aqueous buffered zinc formalin (Anatech, Ltd.) was added to each well for 15 minutes at room temperature. Z-fix was removed and the plate was washed with phosphate-buffered saline (PBS) containing 0.05% Tween 20. The plate was blocked for 1 hour with 1% bovine serum albumin (BSA) in PBS. Dilutions of Fab or IgG were incubated with the fixed and blocked Ramos cells for 1 hour at room temperature. The plate was washed 3× with PBS 0.05% Tween […] of anti-His6 Peroxidase Mouse Monoclonal Antibody (Roche Diagnostics Corporation) at a 1:500 dilution were added to the wells and incubated 1 hour at room temperature. The plate was washed as above and developed with tetramethyl benzidine, and the reaction was stopped with 5N H₂SO₄. The plate absorbance was read at OD 450 nm. Dilutions of Fab and conjugate were in 1% BSA/PBS.

[2] = target: human CD20 (human) (UniProt P11836); assay: fixed Ramos cell ELISA, IgG, on-rate format: 5 min IgG step and 5 min second antibody step, goat anti-human IgG-HRP, OD 450
[3] = target: T1, human CD20; assay: fixed Ramos cell ELISA, OD 450 nm
[4] = target: T1, human CD20; assay: IgG binding to SKW 6.4 B lymphoma cells, free antibody by ELISA, KinExA equilibrium software
Method: (§2) SKW 6.4 cells were grown in DMEM media supplemented with 10% FCS and harvested at 5-10×10⁵ cells per ml. […] For human peripheral blood B cells, fresh CD19 positively sorted B cells were obtained from Allcells. These cells were washed two times in PBS with 1% BSA and resuspended at a concentration of 8×10⁷/ml.
(§3) Twelve, 3 fold serial dilutions were then made and 100ul of each dilution placed in a 96 well plate. To each dilution […] of antibody at 100 ng/ml was added and the plate incubated at 37620 C., 5% CO₂ for 4 hours. Each sample was then filtered with a 96 well 1 micron filter (Millipore) to remove the cells and bound antibody. Free antibody in solution was then quantified using an ELISA. Briefly, free IgG was captured in a 96 well plate coated with 1 mg/ml of anti-human kappa antibody (Southern Biotechnology) and detected using an anti-human Fc antibody coupled with HRP (Southern Biotechnology). The plate was developed using Fast TMB substrate (Pierce) and read at 450 nm.
(§4) The Kd of the antibody was then determined using the KinExA equilibrium software for an unknown antigen concentration. The OD450 value for each serial dilution was fitted with an estimated antigen concentration and the actual antibody concentration. The Kd and actual antigen concentration were then calculated.

[5] = target: T1, human CD20; assay: cell-based or functional assay
[6] = target: T1, human CD20; assay: IgG binding to SKW 6.4 cells, KinExA equilibrium software
Method: as §2, §3, §4

[7] = target: T1, human CD20; assay: IgG binding to primary human peripheral blood B cells (CD19 sorted), KinExA equilibrium software
Method: as §2, §3, §4

[8] = target: T1, human CD20; assay: IgG binding to SKW 6.4 cells over time, free antibody by ELISA, direct kinetics KinExA software
Method: SKW 6.4 cells were grown in DMEM media supplemented with 10% FCS and harvested at 5-10×10⁵ cells per ml. […] An equal volume of antibody at 100 ng/ml in PBS with 1% BSA at 37620 C. was then added to the cells and the timing for the experiment started. At time intervals from 60 seconds to 10800 seconds a sample of the antibody cell solution was sampled and filtered to remove cells and bound antibody. Free antibody remaining at each time point was then quantified using the ELISA described above.
The kinetics for the antibody cell reaction was calculated using the direct kinetics KinExA software. The OD450 value for each time point was fitted using the previously calculated Kd and antigen concentration and the Kon and Koff for the reaction calculated.

[9] = target: T1, human CD20; assay: fixed Ramos cell ELISA, IgG, on-rate format: 5 min IgG step and 5 min second antibody step, goat anti-human IgG-HRP, OD 450
Method: as §1
(§5) IgG assays were performed similarly except IgG bound was detected with goat anti-human IgG-HRP. To compare antibody off-rate, after incubation with Fab or IgG the plates were incubated over night in PBS/BSA, before proceeding with the second antibody step. To compare antibody on-rate, incubation steps for Fab/IgG binding and with the second antibody were both of 5 minutes duration.

[10] = target: T1, human CD20; assay: fixed Ramos cell ELISA, off-rate format: overnight incubation in PBS/BSA after the Fab step, anti-His6 peroxidase, OD 450
Method: as §1, §5

[11] = target: T1, human CD20; assay: fixed Ramos cell ELISA, on-rate format: 5 min Fab step and 5 min second antibody step, anti-His6 peroxidase, OD 450
Method: as §1
IgG assays were performed similarly except IgG bound was detected with goat anti-human IgG-HRP. […]

C2B8 Fab
EC50 (read off the curve) [1]: 0.06 µg/mL

commercial RITUXAN (Oncology Supply Co.) (antibody)
EC50 (read off the curve) [2]: 1 µg/mL

B1: AME 33 IgG (antibody, V domains shown)
VH: EVQLVQSGAEVKKPGESLKISCKGSGRTFTSYNMHWVRQMPGKGLEWMGAIYPLTGDTSYNQKSKLQVTISADKSISTAYLQWSSLKASDTAMYYCARSTYVGGDWQFDVWGKGTTVTVSS
VL: EIVLTQSPGTLSLSPGERATLSCRASSSVPYIHWYQQKPGQAPRLLIYATSALASGIPDRFSGSGSGTDFTLTISRLEPEDFAVYYCQQWLSNPPTFGQGTKLEIKR
notes: Full IgG; also called AME 33 antibody
maximum OD relative to the C2B8 antibody [3]: ~1.5 times
Kd [4]: 0.097 nM
ADCC, Estimated EC50s, ug/ml (Wil-2 cells as target) [5]: 0.0063 µg/mL
fold enhancement of Kd compared to the C2B8 antibody [6]: 10 fold
Kd [7]: 0.113 nM
koff [8]: 7.7e-05 s⁻¹
kon [8]: 780000 M⁻¹ s⁻¹

B2: AME 1D10 IgG (antibody, V domains shown)
VH: B1 VH with R27Y, T55N, S64F, Q107T
VL: EIVLTQSPGTLSLSPGERATLSCRASSSVPYIHWYQQKPGQAPRLLIYATSNLASGIPDRFSGSGSGTDFTLTISRLEPEDFAVYYCQQWLSNPPTFGQGTKLEIK
notes: Full IgG
maximum OD relative to the C2B8 antibody [3]: ~1.5 times
EC50 (read off the curve) [9]: ~0.4 µg/mL

B3: AME 1D10 Fab (Fab, V domains shown)
VH: B1 VH with R27Y, T55N, S64F, Q107T
VL: B2 VL
notes: Fab, His-tagged (anti-His6 detection); constant regions and tag not given
EC50 (read off the curve) [1]: ~0.06 µg/mL
EC50 (read off the curve) [10]: ~0.2 µg/mL

B4: AME 15 IgG (antibody, V domains shown)
VH: B1 VH with R27Y, T55N, Q62R, Q107T
VL: B2 VL
notes: Full IgG
maximum OD relative to the C2B8 antibody [3]: ~1.5 times
EC50 (read off the curve) [9]: ~0.3 µg/mL

B5: AME 18 IgG (antibody, V domains shown)
VH: B1 VH with S64F, T100Y, Q107T
VL: B2 VL with N52A
notes: Full IgG
maximum OD relative to the C2B8 antibody [3]: ~1.5 times

B6: 21E1 Hum (Fab, V domains shown)
VH: B1 VH with R27Y, L54G, T55N, S64F, L66G, V102Y, Q107S
VL: B2 VL with P30S
notes: the panels are titled Fab; also called AME 21E1 Hum; AME 21E1 Hum Fab
binding result [1]: no binding (tested: about 7 µg/ml)

B7: AME 15 Fab (Fab, V domains shown)
VH: B1 VH with R27Y, T55N, Q62R, Q107T
VL: B2 VL
notes: as for B3
EC50 (read off the curve) [1]: ~0.05 µg/mL
EC50 (read off the curve) [10]: ~0.2 µg/mL

B8: AME 33 Fab (Fab, V domains shown)
VH: B1 VH
VL: B2 VL with N52A
notes: Fab
EC50 (read off the curve) [1]: ~0.08 µg/mL
EC50 (read off the curve) [11]: ~0.5 µg/mL

B9: AME 2C2 IgG (antibody, V domains shown)
VH: B1 VH with R27Y, T55N, S64F, Q107T
VL: B2 VL with P30S
notes: constant regions not spelled out
EC50 (read off the curve) [9]: ~0.5 µg/mL

B10: AME 18 Fab (Fab, V domains shown)
VH: B1 VH with S64F, T100Y, Q107T
VL: B2 VL with N52A
notes: as for B3
EC50 (read off the curve) [1]: ~0.06 µg/mL
EC50 (read off the curve) [11]: ~0.3 µg/mL

B11: AME 4H5 Fab (Fab, V domains shown)
VH: QVQLVQSGAEVKKPGASVKVSCKASGYTFTSYNMHWVRQAPGQGLEWMGAIYPGNGDTSYNQKFKWRVTMTRDTSTSTVYMELSSLRSEDTAVYYCARSTYYGGDWQFDQWGKGTTVTVSS
VL: DIQMTQSPSSLSASVGDRVTITCRASSSVHYIHWYQQKPGKVPKLLIYATSNLASGVPSRFSGSGSGTDFTLTISSLQPEDVATYYCQQWTFNPPTFGGGTKVEIK
notes: as for B3
EC50 (read off the curve) [1]: ~0.06 µg/mL
EC50 (read off the curve) [10]: ~0.1 µg/mL

B12: AME 4H5 IgG (antibody, V domains shown)
VH: B11 VH
VL: B11 VL
notes: Full IgG
maximum OD relative to the C2B8 antibody [3]: ~1.5 times

B13: AME 5 IgG (antibody, V domains shown)
VH: B11 VH with Q110E
VL: B11 VL with N52G, Q89T
notes: Full IgG
Kd [4]: 0.145 nM
fold enhancement of Kd compared to the C2B8 antibody [6]: 10 fold
koff [8]: 7.9e-05 s⁻¹
kon [8]: 580000 M⁻¹ s⁻¹
